# From PMC2526197 (The Journal of Experimental Medicine, 2008)
# T1: Evasin-1 (Rhipicephalus sanguineus, UniProt P0C8E7 21-114)
# T1 sequence (looked up): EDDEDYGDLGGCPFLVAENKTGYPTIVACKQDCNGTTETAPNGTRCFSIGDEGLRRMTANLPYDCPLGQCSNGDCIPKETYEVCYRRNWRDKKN
# T2: CXCL1 (human, UniProt P09341 35-107)
# T2 sequence (looked up): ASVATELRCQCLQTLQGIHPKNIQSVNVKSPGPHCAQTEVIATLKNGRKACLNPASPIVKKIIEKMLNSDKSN
# T3: KC (mouse, UniProt P12850 25-96)
# T3 sequence (looked up): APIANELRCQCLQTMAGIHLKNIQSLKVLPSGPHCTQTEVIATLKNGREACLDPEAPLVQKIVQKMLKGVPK
# T4: MIP-2 (mouse, UniProt P10889 28-100)
# T4 sequence (looked up): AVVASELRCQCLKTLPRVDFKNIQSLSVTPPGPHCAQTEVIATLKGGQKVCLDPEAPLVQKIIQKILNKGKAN
# What was measured:
# Assay in all cases: SPR
# [1] = biological target: T1, Evasin-1
# [2] = biological target: T2, CXCL1
# [3] = biological target: T3, KC
# [4] = biological target: T4, MIP-2
Binder,Kd [1] [nM],koff [1] [s⁻¹],kon [1] [M⁻¹ s⁻¹],Kd [2] [nM],koff [2] [s⁻¹],kon [2] [M⁻¹ s⁻¹],Kd [3] [nM],koff [3] [s⁻¹],kon [3] [M⁻¹ s⁻¹],Kd [4] [nM],koff [4] [s⁻¹],kon [4] [M⁻¹ s⁻¹]
"CCL3L1 (ligand, human, UniProt P16619 24-93, looked up) APLAADTPTACCFSYTSRQIPQNFIADYFETSSQCSKPSVIFLTKRGRQVCADPSEEWVQKYVSDLELSA",0.05,0.00067 ± 0.13,1.32e+07 ± 2.9,–,–,–,–,–,–,–,–,–
"Evasin-3 (HEK) (natural protein, Rhipicephalus sanguineus, UniProt P0C8E8 21-86, looked up, also: extensively glycosylated) LVSTIESRTSGDGADNFDVVSCNKNCTSGQNECPEGCFCGLLGQNKKGHCYKIIGNLSGEPPVVRR",–,–,–,0.34,0.00142 ± 0.36,3.95e+06 ± 4.23,2.25,0.00144 ± 0.35,640000 ± 0.58,0.4,0.00033 ± 0.11,790000 ± 0.9
"Evasin-3 (E. coli) (natural protein, Rhipicephalus sanguineus, UniProt P0C8E8 21-86, looked up) LVSTIESRTSGDGADNFDVVSCNKNCTSGQNECPEGCFCGLLGQNKKGHCYKIIGNLSGEPPVVRR",–,–,–,0.85,0.00222 ± 0.49,2.61e+06 ± 0.69,5.78,0.00185 ± 0.43,320000 ± 0.17,0.64,0.00065 ± 0.25,1.02e+06 ± 0.56
"CCL4 (ligand, human, UniProt P13236 24-92, looked up) APMGSDPPTACCFSYTARKLPRNFVVDYYETSSLCSQPAVVFQTKRSKQVCADPSESWVQEYVYDLELN",0.51,0.0022 ± 0.18,4.29e+06 ± 2.58,–,–,–,–,–,–,–,–,–
"murine MIP-1α (ligand, mouse, UniProt P10855 24-92, looked up) APYGADTPTACCFSYSRKIPRQFIVDYFETSSLCSQPGVIFLTKRNRQICADSKETWVQEYITDLELNA",0.08,0.00118 ± 1.07,1.56e+07 ± 16,–,–,–,–,–,–,–,–,–
"murine MIP-1β (ligand, mouse, UniProt P14097 24-92, looked up) APMGSDPPTSCCFSYTSRQLHRSFVMDYYETSSLCSKPAVVFLTKRGRQICANPSEPWVTEYMSDLELN",0.15,0.00058 ± 0.12,3.84e+06 ± 1.42,–,–,–,–,–,–,–,–,–
"CCL3 (ligand, human, UniProt P10147 24-92, looked up) SLAADTPTACCFSYTSRQIPQNFIADYFETSSQCSKPGVIFLTKRSRQVCADPSEEWVQKYVSDLELSA",0.12,0.00243 ± 0.61,1.38e+07 ± 3.54,–,–,–,–,–,–,–,–,–
